The values that follow come from US20120064125A1 (priority 2009, published 2012).

In this test the test system is USA300 strain LAC biofilm. Put plainly: Protease and DNaseI treatment of USA300 titanium biofilms (CLSM, COMSTAT). It counts as cell-based, Staphylococcus aureus. The note with it: 2 day biofilm, Proteinase K 2 μg/mL or DNaseI 0.5 Units/mL. The protocol: FIGS. 4A-B. Protease and DNaseI treatment of USA300 titanium biofilms. Biofilms of LAC with plasmid pCM12 were grown for two days on titanium. Biofilms were either untreated or grown in the presence of Proteinase K or DNaseI. For treatments, Proteinase K was added to 2 μg/mL and DNaseI was added to 0.5 Units/mL to the flow cell media. At 6 and 22 hr, CLSM images were obtained and analyzed. (FIG. 4A) Representative CLSM image reconstructions generated from a z series. Each side of the image grid square is 20 μm. (FIG. 4B) COMSTAT analysis of images represented in terms of average thickness (μm) and biomass (μm^3/μm^2). Green triangles represent untreated biofilm, red circles represent DNaseI treatment, and black squares represent Proteinase K treatment. Error bars represent standard deviation.
Biofilm Assays. For biofilms grown on glass, flow cell biofilm growth, confocal scanning laser microscopy (CSLM), and computer image analysis were performed as previously described (Boles and Horswill, 2008). […] For biofilm dispersal tests, AIP type I (AIP-I) was synthesized and quantified using an intein system (Malone et al., 2007), and biofilm dispersal tests were performed as previously described (Boles and Horswill, 2008). […] LAC biofilm integrity was monitored at 6 hr and 22 hr, and COMSTAT analysis was performed to quantify the biofilm properties. […]

B1: proteinase K: Proteinase K (Research Productions International), protease added to flow cell media (protein, UniProt P06873 106-384, looked up)
Proteinase K: AAQTNAPWGLARISSTSPGTSTYYYDESAGQGSCVYVIDTGIEASHPEFEGRAQMVKTYYYSSRDGNGHGTHCAGTVGSRTYGVAKKTQLFGVKVLDDNGSGQYSTIIAGMDFVASDKNNRNCPKGVVASLSLGGGYSSSVNSAAARLQSSGVMVAVAAGNNNADARNYSPASEPSVCTVGASDRYDRRSSFSNYGSVLDIFGPGTSILSTWIGGSTRSISGTSMATPHVAGLAAYLMTLGKTTAASACRYIADTANKGDLSNIPFGTVNLLAYNNYQA
For B1, the “LAC biomass detached from the titanium surface” value runs as follows: (6 hr) “approximately 93%”; (22 hr) “all of the LAC biomass had detached”.
